Patent US5665701

Tests used:
[1] = target: FcγRII receptor (CD32) on human platelets (human) (UniProt P12318)
[2] = target: FcγRII receptor (CD32) on human platelets (human) (UniProt P12318); remark: listed apart in the source

CD32 antibody IV.3 (M.Ab.IV.3)
concentration that doubled the latency of M.Ab.F11-induced aggregation [1]: 150 ng/mL | inhibition of M.Ab.F11-induced ^14 C-serotonin release [2]: 1 µg/mL
